# Assay results as given in PMC4065374.
# B1: GST-tagged Aeromonas caviae flagellin-specific chaperone FlaJ (GST-FlaJ) (natural protein)
# chain: MYKRNIKAYTAGNLAADLATADPHRVIQLMMQGCLERLAQAKGAIERNDMEAKSIAISKAQGLLHGLQDALDMSQGRMAEDLYGLYAYMDERVWDASLNRDTEPLEEVMTLMLTIKSGWDQLPETEKNQGYQMRQQLGEL
# Target: glycosylated Aeromonas caviae polar flagellin FlaA, FlaA (+pse) (Aeromonas caviae (endogenous in A. caviae Sch3N and its flaB mutant AAR27))
# Assay: far-Western, overlay or dot blot; glycosylated and unglycosylated FlaA titrated across an SDS-PAGE gel, transferred to nitrocellulose, probed with a constant concentration of GST-FlaJ; αGST-HRP, densitometry, triplicate blots
binder,measurement,value
B1,fold more GST-FlaJ bound than to equimolar unglycosylated FlaA,5 fold
